Source: paper PMC4786428, “Recombinational branch migration by the RadA/Sms paralog of RecA in Escherichia coli”

T1: RadA (Sms) wild type (Escherichia coli, UniProt P24554 1-460)
T1 sequence: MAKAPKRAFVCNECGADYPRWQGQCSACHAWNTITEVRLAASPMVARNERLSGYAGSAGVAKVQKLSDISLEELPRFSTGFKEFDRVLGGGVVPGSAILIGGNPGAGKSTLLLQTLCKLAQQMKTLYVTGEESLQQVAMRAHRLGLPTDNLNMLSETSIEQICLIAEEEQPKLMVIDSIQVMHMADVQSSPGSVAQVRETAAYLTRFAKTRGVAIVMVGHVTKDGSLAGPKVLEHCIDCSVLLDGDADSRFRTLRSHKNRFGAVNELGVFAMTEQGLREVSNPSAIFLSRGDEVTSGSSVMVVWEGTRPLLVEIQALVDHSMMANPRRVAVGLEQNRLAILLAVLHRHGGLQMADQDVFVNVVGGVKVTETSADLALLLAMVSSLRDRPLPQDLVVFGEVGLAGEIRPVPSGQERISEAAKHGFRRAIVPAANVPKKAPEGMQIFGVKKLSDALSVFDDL


Assays:
RadA (Sms) wild type [1] = molecular target: T1, RadA (Sms) wild type; assay: EMSA; 1 mM ADP (standard); apparent; Hill coefficient 1.5; 50 mM Tris-HCl pH 7.5, 10 mM MgCl2, 0.1 mM EDTA, 75 mM NaCl, 5 mM DTT, 100 ug/ml BSA, 1 mM nucleotide, 100 fmol DNA, 37 C for 20-30 min; 6% TBE polyacrylamide gel at room temperature; conditions: protein: recombinant; tags: eXact tag cleaved; 2 extra N-terminal residues Thr-Ser remain; chain copies: 6
RadA (Sms) wild type [2] = molecular target: T1, RadA (Sms) wild type; assay: competition; unlabeled competitor vs labeled poly(dT)30, 1 mM ADP; 50 mM Tris-HCl pH 7.5, 10 mM MgCl2, 0.1 mM EDTA, 75 mM NaCl, 5 mM DTT, 100 ug/ml BSA, 1 mM nucleotide, 100 fmol DNA, 37 C for 20-30 min; 6% TBE polyacrylamide gel at room temperature; conditions: protein: recombinant; tags: eXact tag cleaved; 2 extra N-terminal residues Thr-Ser remain; chain copies: 6

| Binder | Kd (RadA (Sms) wild type [1]) | binding result (RadA (Sms) wild type [2]) |
| --- | --- | --- |
| TTTTTTTTTTTTTTTTTTTTTTTTTTTTTT (ssDNA) [poly(dT)30] | 110 ± 14 nM |  |
| AAAAAAAAAAAAAAAAAAAAAAAAAAAAAAAAA (ssDNA) [poly(dA)33] |  | no binding |
